Data on five substances can be found in patent publication EP0957164B1.

The assay has as its target insulin (UniProt P01308). The experiment in a line: PEG precipitation assay, A14-125I-insulin tracer displaced by unlabeled insulin, BHK medium.
Sequence of UniProt P01308 (P01308 90-110 limits assumed, chain 1 of 2): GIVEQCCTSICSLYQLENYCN
Sequence of UniProt P01308 (P01308 25-54 limits assumed, chain 2 of 2): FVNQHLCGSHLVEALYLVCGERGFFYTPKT
For orientation: Kd means the equilibrium constant for the complex coming apart. A higher Kd goes with weaker binding. Take “IGFIR(Δ459-672).1-68, 704-729.IR (receptor)”: the Kd worked out at 4.4 nM. Substance IRΔ703 (receptor) registered a Kd of 4.4 nM. In turn, IRΔ673 (receptor) had a Kd of 1.1 nM. IGFIR(Δ459-672).1-68IR (receptor) registered a Kd of 2.1 nM.

For IRΔ685 (receptor), the Kd was determined as 6.4 nM.
